Data published in patent US5616484.

Molecular target: T1, ApaLI restriction endonuclease (apaLIR product, 375 aa) (Acetobacter pasteurianus) (UniProt O52703)
T1 sequence: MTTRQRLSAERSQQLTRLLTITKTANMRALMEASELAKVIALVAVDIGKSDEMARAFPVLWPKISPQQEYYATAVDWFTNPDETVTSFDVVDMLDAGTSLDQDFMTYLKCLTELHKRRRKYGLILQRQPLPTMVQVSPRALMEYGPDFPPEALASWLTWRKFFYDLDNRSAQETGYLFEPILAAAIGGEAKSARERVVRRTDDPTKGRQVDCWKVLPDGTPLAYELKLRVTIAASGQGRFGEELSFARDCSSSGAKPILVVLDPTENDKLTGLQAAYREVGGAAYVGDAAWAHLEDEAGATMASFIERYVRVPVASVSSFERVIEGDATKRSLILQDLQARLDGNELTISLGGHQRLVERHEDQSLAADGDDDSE
Assay: cleavage_in_vitro
Settings: diluted cell extract, 1 ug lambda DNA, 1 h, 37 C

lambda DNA
activity (units/g wet cells): 1e+06
